In publication PMC4403819:

Biological target: T1, OmpR-His6 non-phosphorylated (Yersinia enterocolitica Ye9 (O:9)?) (UniProt P74982)
T1 sequence: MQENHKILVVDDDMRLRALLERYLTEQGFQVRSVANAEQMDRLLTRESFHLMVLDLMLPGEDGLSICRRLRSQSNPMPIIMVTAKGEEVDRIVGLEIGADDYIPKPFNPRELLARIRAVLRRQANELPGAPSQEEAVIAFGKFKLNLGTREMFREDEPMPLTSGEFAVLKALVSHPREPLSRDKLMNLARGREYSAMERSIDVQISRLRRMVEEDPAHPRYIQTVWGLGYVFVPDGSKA
Assay: EMSA
Conditions: Binding buffer, pH and temperature not given ([…]

TGGAATTCATTGCAGCCAGAGGCATTACCCCTCTGTTTTTGCTCATAGATAAACCTCAAGTGTCCGATTTTTAATTTAATTCAATGGATCACAAGCTTTAAAACCCATTGCTGCGTAAATTATATGTGCGTGCTATGGTACATACATTCGTGAATGTATGTAAATCGCACCCCCTCGAAAAAACAACGCTATGGCACGAAAAACCAAACAGCAAGGTACCCA (double strand) [acrR promoter fragment p222]
binding: binds more weakly
